Experimental data as given in patent US20150315279A1 (CELLERANT THERAPEUTICS, published 2015).
One block for each binder: values may come before it. No end group written: not given here.

Experiments:
[1] = biological target: T1, secreted form of IL1RAP (recombinant) (human, UniProt Q9NPH3 21-350); assay: ELISA, antigen captured by goat anti-human IL1RAP polyclonal, serially diluted antibody
T1 construct: also called recombinant form of the secreted IL1RAP; soluble IL1RAP
T1 sequence: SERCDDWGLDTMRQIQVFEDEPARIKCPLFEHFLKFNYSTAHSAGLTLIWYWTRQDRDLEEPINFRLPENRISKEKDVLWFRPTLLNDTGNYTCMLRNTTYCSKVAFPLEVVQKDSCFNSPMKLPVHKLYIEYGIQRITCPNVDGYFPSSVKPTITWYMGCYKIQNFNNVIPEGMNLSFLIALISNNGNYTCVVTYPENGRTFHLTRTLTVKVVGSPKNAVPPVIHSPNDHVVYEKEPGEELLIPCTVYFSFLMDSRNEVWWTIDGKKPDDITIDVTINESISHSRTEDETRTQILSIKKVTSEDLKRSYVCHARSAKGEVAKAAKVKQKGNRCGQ
Excerpt: (§1) The binding specificity of purified 4B6 was confirmed by ELISA assays described below. Wells of 96-well plate were coated with goat-anti-human IL1RAP polyclonal antibodies to capture various forms of IL1RAP. Forms of IL1RAP captured were (a) ECD form of IL1RAP, (b) the secreted form IL1RAP, and (c) human serum containing the secreted form of IL1RAP. Each captured form was then reacted with serially diluted tested antibody 4B6, control antibody 12G6, or a mouse IgG1 isotype control antibody. After incubation and washing, wells were reacted with secondary donkey-anti-mouse-HRP polyclonal antibodies. Color was developed with TMB substrate after incubation and PBS washes.

[2] = biological target: T2, soluble (secreted) form of IL1RAP in normal human serum (human, UniProt Q9NPH3 21-350); assay: ELISA, antigen captured from human serum by goat anti-human IL1RAP polyclonal, serially diluted antibody
T2 construct: Natural protein captured from human serum; also called IL1RAP from NHS; natural secreted form of IL1RAP in human serum
T2 sequence: T1 sequence
Excerpt: as §1

[3] = biological target: T3, human interleukin 1 receptor accessory protein, membrane-bound (receptor) form on cells (human, UniProt Q9NPH3 21-570); assay: flow cytometry on BMMC or PBMC of AML patients, 1F5 at 2 µg/mL
T3 construct: also called IL1RAP; receptor IL1RAP
T3 sequence: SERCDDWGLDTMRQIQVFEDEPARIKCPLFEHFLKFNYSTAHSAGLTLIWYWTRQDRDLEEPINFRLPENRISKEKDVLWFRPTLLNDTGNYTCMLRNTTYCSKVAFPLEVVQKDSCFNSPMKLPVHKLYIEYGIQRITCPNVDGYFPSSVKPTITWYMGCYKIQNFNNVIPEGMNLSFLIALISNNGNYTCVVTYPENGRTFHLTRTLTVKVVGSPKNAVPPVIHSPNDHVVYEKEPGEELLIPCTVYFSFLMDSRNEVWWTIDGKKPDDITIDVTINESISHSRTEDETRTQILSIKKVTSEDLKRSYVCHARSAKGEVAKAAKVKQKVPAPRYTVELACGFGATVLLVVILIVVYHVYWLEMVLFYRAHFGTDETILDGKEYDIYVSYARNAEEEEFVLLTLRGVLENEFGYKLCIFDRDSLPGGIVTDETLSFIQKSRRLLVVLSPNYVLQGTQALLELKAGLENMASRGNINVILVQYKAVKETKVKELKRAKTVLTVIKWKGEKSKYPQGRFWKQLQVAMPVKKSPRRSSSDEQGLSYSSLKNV
Method: Bone Marrow-Derived […] (BMMC) or Peripheral Blood Mononuclear Cells (PBMC) were isolated by Ficoll separation (GE Healthcare) from bone marrow aspirate or whole blood respectively of AML patients. Cells were resuspended in staining solution (HBSS, 1% BSA, 1 mM EDTA) to 2×10⁶ cells/mL and blocked with mouse and rat IgG prior to staining. Unconjugated IgG2a or 1F5 antibodies were added to each tube to a final concentration of 2 μg/mL. 50 μL of the cell solution was added to each tube and incubated on ice for 30 min (each stage of incubation was 30 min). Cells were washed with staining solution and resuspended in 100 μL of staining solution with a […] concentration of anti-mouse-PE secondary. Cells were washed with staining solution and resuspended in 100 μL of staining solution with 5 μL each of CD34-FITC, CD45-APC and CD38-APC (BD). Cells were washed with staining solution and resuspended in 200 μL. Cells were immediately applied to flow cytometry for analysis.

[4] = biological target: T4, 12-mer peptide VPAPRYTVELAC (human); assay: ELISA, peptide adsorbed on the plate
T4 construct: also called unconjugated peptide
T4 peptide: VPAPRYTVELAC
Method: Peptide was conjugated to Keyhole Limpet Hemocyanin (KLH) using methods known in the art. Unconjugated peptide, KLH-peptide, and KLH were then adsorbed onto different wells of a MAXIBIND 96-well ELISA plate, which was then blocked with 1% BSA. Anti-IL1RAP antibody 1F5 was then added to the wells followed by an incubation and a wash. After the wash, donkey-anti-mouse-HRP was added to the wells at a 1:50,000 dilution followed by an incubation and a wash. Color was developed with TMB substrate. The reaction was quenched with acid and the plate was read at 450 nm.

peptide AC Pep-1 = biological target: T5, peptide AC Pep-1 (human); assay: ELISA of hybridoma supernatant on peptide AC Pep-1
T5 peptide: VKQKVPAPRYTVELAC

[5] = biological target: T6, extracellular domain (ECD) form of IL1RAP (human, UniProt Q9NPH3 21-367); assay: ELISA, IL1RAP captured by goat anti-human IL1RAP polyclonal, 1F5 at 1 µg/ml
T6 construct: also called ECD of IL1RAP; ECD IL1RAP
T6 sequence: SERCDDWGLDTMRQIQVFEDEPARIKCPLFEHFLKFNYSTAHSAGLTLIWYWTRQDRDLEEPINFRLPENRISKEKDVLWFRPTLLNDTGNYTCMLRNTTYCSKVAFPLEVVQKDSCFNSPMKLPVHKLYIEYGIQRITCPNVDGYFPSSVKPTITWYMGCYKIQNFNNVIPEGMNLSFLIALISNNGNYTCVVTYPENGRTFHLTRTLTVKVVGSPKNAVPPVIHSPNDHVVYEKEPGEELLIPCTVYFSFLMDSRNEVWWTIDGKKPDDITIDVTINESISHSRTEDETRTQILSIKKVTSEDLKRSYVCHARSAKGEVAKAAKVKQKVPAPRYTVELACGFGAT
Method: Wells of a 96-well ELISA plate were coated with goat-anti-human IL1RAP polyclonal at 0.5 μg/ml and incubated overnight at 2-8° C. The coated wells were washed with PBS with 0.05% Tween-20, then blocked with 1% BSA. IL1RAP was added into the wells at 0.5, 1, or 2 μg/ml followed by an incubation and a 3×PBS wash. After the 3×PBS wash, antibody 1F5 was added to the wells at 1 μg/ml followed by an incubation and a 3×PBS wash. After the 3×PBS wash, donkey-anti-mouse-HRP was added to the wells at a 1:50,000 dilution followed by an incubation and a 3×PBS wash. Color was developed with TMB substrate. The reaction was quenched with acid and the plate was read at 450 nm.

[6] = biological target: T2, soluble (secreted) form of IL1RAP in …; assay: sandwich ELISA with normal human serum
[7] = biological target: T7, ACPep-1 conjugated to KLH (human, also: conjugated to KLH, site and chemistry not given here); assay: ELISA, antigen coated at 2 ug/ml, antibody at 20 ug/ml
T7 construct: Peptide-carrier conjugate; also called ACPep-1-KLH; ACPep-1 conjugated KLH; not shown: Keyhole limpet hemocyanin (KLH) carrier
T7 peptide: VKQKVPAPRYTVELAC
Method: (§2) An ELISA was performed to further determine the specificity of monoclonal antibodies 4G9, 12F1, and 42E1. Wells of 96-well plate were coated with the secreted form of IL1RAP, ECD form of IL1RAP, ACPep-1 conjugated to KLH, or unconjugated KLH at 2 ug/ml overnight at 2-8° C. The coated wells were washed with PBS with 0.05% Tween-20, and then blocked with 1% BSA. Purified test antibodies 4G9, 12F1 and 42E1 were diluted to 20 ug/ml, added to wells coated with various proteins, and incubated at RT for 1 hr. Antibody 12G6, which binds to both the ECD and the secreted form of IL1RAP, was added as a control. Mouse IgG1 was also added as an isotype control. After incubation and PBS washes, donkey anti-mouse-HRP polyclonal antibodies were added. Color was developed with TMB substrate after incubation and PBS washes. The reaction was quenched with acid and the plate was read at 450 nm.

[8] = biological target: T1, secreted form of IL1RAP (recombinant); assay: ELISA, antigen coated at 2 ug/ml
Method: as §2

binding result [1]: no binding | binding result [2]: no binding
B1: monoclonal antibody 4B6 (antibody, V domains shown)
VH: EVKLVESGGGLVKPGGSLKLSCAASGFTFRTYAMSWVRQTPEKRLEWVASISSRGRIYYPDSVKGRFTISRDNARNILYLQMSSLRSEDTAMYYCARDGDYGSSYDYWGQGTTLTVSS
VL: DIQMTQSPSSLSASLGERVSLTCRASQDIGSSLNWLQQEPDGTIKRLIYATSSLDSGVPKRFSGSRSGSDYSLTISSLESEDFVDYYCLQYASSPWTFGGGTKLEIK

binding result [3]: binds | binding result [4]: binds | binding result (peptide AC Pep-1): binds | binding result [5]: binds | binding result [6]: no binding
B2: anti-receptor IL1RAP antibody clone 1F5 (antibody, V domains shown)
VH: EVKLVESGGGLVKPGASLKLSCAASGFTFSNYGMSWVRQTSDKRLEWVASISSGGGSTYYPDNVKGRFTISRENAKNTLYLQMSSLKSEDTALYYCARVLPGRWAMDYWGQGSSVTVSS
VL: DVVMTQTPLSLPVSLGDQASISCRSSQSLVHINGNTYLHWYLQKPGQSPKLLIYKVSNRFSGVPDRFSGSGSGTDFTLKISRVEAEDLGVYFCSQSTHVPWTFGGGTKLEIK
notes: Mouse monoclonal antibody from a hybridoma (A/J mice immunised with AC Pep-1-KLH); IgG2a was used as its control in flow cytometry; Hybridoma supernatants were used in some assays; also called anti-IL1RAP antibody 1F5; 1F5 supernatants

binding result [7]: binds | binding result [8]: no binding (tested: 20 ug/ml)
B3: monoclonal antibody 4G9 (antibody, V domains shown)
VH: QVQLQQSGTELVRPGASVKLSCKASGYTFTDYEMHWVKQTPVHGLEWIGAIDPGTGGIAYNQKFKGKATLTADKSSSTAYMELRSLTSEDSAVYYCTLYDYDLAYWGQGTLVTVSA
VL: DVLMTQTPLSLPVSLGDQASISCRSSQSIVHSNGNTYLEWFLQKPGQSPKLLIYTVSNRFSGVPDRFSGSGSGTDFTLKISRVEAEDLGVYYCFQGSHVPPTFGGGTKLEIK
